# Reference: PMC7226451, “Half Way to Hypusine—Structural Basis for Substrate Recognition by Human Deoxyhypusine Synthase” (Biomolecules, 2020)
# B1: truncated DHS Δ1-52 (domain or fragment, human, UniProt P49366 53-369, looked up)
# chain: GFQATNFGRAVQQVNAMIEKKLEPLSQDEDQHADLTQSRRPLTSCTIFLGYTSNLISSGIRETIRYLVQHNMVDVLVTTAGGVEEDLIKCLAPTYLGEFSLRGKELRENGINRIGNLLVPNENYCKFEDWLMPILDQMVMEQNTEGVKWTPSKMIARLGKEINNPESVYYWAQKNHIPVFSPALTDGSLGDMIFFHSYKNPGLVLDIVEDLRLINTQAIFAKCTGMIILGGGVVKHHIANANLMRNGADYAVYINTAQEFDGSDSGARPDEAVSWGKIRVDAQPVKVYADASLVFPLLVAETFAQKMDAFMHEKNED
# notes: human deoxyhypusine synthase, Uniprot P49366, residues 53-369 (lacks the N-terminal ball-and-chain motif, residues 1-52); Cloned in pET24d with an N-terminal 6xHis-tag and a TEV site; also called truncation mutant; source: E. coli BL21(DE3), purified (HisTrap, TEV cleavage, reverse HisTrap, SEC); not shown: His6, N-terminal, cleaved
# B2: deoxyhypusine synthase (DHS), full-length, wild type (enzyme, human, UniProt P49366 1-369, looked up)
# chain: MEGSLEREAPAGALAAVLKHSSTLPPESTQVRGYDFNRGVNYRALLEAFGTTGFQATNFGRAVQQVNAMIEKKLEPLSQDEDQHADLTQSRRPLTSCTIFLGYTSNLISSGIRETIRYLVQHNMVDVLVTTAGGVEEDLIKCLAPTYLGEFSLRGKELRENGINRIGNLLVPNENYCKFEDWLMPILDQMVMEQNTEGVKWTPSKMIARLGKEINNPESVYYWAQKNHIPVFSPALTDGSLGDMIFFHSYKNPGLVLDIVEDLRLINTQAIFAKCTGMIILGGGVVKHHIANANLMRNGADYAVYINTAQEFDGSDSGARPDEAVSWGKIRVDAQPVKVYADASLVFPLLVAETFAQKMDAFMHEKNED
# modifications: Cys177 covalently modified to a β-mercaptoethanol (BME) adduct (seen in all crystal structures)
# notes: human deoxyhypusine synthase, Uniprot P49366, residues 1-369; gene optimised for E. coli and synthesised; Cloned in pET24d (NcoI/BamHI) with an N-terminal 6xHis-tag and a TEV site; also called DHS wt; full length DHS; source: E. coli BL21(DE3), purified (HisTrap, TEV cleavage, reverse HisTrap, SEC); not shown: His6, N-terminal, cleaved
# Molecular target: the molecule itself
# Assay: SEC-MALS; pure protein on XBridge BEH200 7.8 x 300 in 50 mM Tris 7.8, 200 mM NaCl, 5 mM β-ME, 1 mL/min; MALS with refractive index
row,Protein,stoichiometry N
1,B1,2
2,B2,4
